Literature values, collected in PMC8920573.

Biological target: SARS-CoV main protease main protease (Severe acute respiratory syndrome coronavirus) (UniProt P0C6X7)

For “SARS-CoV main protease main protease (from UniProt P0C6X7)”, the Kd is given as 2500 nM.
